Measurements published in patent US6287813.

Biological target: tTA (TetR-VP16) (/ Herpes simplex virus) (UniProt P04483)
Experiment: cell_activity
Settings: CHO-TWIN195 without antibiotic; 8.57% with TET

tTA (TetR-VP16) (/ Herpes simplex virus), sequence (P04483 whole entry): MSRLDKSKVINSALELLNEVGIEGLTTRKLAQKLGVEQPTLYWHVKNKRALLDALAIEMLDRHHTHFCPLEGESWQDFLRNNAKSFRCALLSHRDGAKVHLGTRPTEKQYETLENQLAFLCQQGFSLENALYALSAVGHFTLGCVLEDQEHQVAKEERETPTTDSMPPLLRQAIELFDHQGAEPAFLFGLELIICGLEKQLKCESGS

PhCMV*-1 (tet-responsive promoter)
activity: 18.6 mU/ml SEAP
